target: Recombinant Human CTLA4-Fc chimera (R&D systems) (human) (UniProt P16410); assay: ELISA, signal over SA

ELISA S/N(SA) | Binder
7.5 | GGCWHPCLPILSPHFCPR (peptide, not shown: large carriers; small tags and cut ends) [C4m3127-4th-NNS6-30]
10.3 | GGCWHPYLPILSLHFCQR (peptide, not shown: large carriers; small tags and cut ends) [C4m#19-5th2w-NNS6-6]
4.6 | GGCWHPWLPIVSVHFCGC (peptide, not shown: large carriers; small tags and cut ends) [C4m#19-5th4w-NN6-72]
7.1 | GGCAHPALPIWSCHFCPF (peptide, not shown: large carriers; small tags and cut ends) [C4m3127-4th-NNS6-26]
9.4 | GGCIHPFLPIWSIHFCSR (peptide, not shown: large carriers; small tags and cut ends) [C4m#19-5th2w-NNS6-37]
7.7 | GGCFHPYLPIWSLHFCRS (peptide, not shown: large carriers; small tags and cut ends) [C4m#19-5th2w-NNS6-86]
12.8 | GGCLHPFLPIRSVHFCLR (peptide, not shown: large carriers; small tags and cut ends) [C4m3127-4th-NNS6-79]
6.3 | GGCFHPWLPISSLHFCPF (peptide, not shown: large carriers; small tags and cut ends) [C4m#19-5th2w-NNS6-4]
4.4 | GGCRHPFLPIFSVHFCPF (peptide, not shown: large carriers; small tags and cut ends) [C4m#19-5th2w-NNS6-66]
6.3 | GGCAHPYLPIRSVHFCPC (peptide, not shown: large carriers; small tags and cut ends) [C4m#19-5th2w-NNS6-28]
13.5 | GGCFHPWLPIASWHFCGR (peptide, not shown: large carriers; small tags and cut ends) [C4m3127-4th-NNS6-48]
15.1 | GGCFHPFLPIYSWHFCAR (peptide, not shown: large carriers; small tags and cut ends) [C4m#19-5th4w-NN6-74]
9.2 | GGCRHPFLPIVSRHFCVA (peptide, not shown: large carriers; small tags and cut ends) [C4m#19-5th2w-NNS6-79]
5.1 | GGCRHPFLPIVSWHFCAA (peptide, not shown: large carriers; small tags and cut ends) [C4m#19-5th2w-NNS6-70]
4.8 | GGCAHPHLPIRSVHFCSF (peptide, not shown: large carriers; small tags and cut ends) [C4m3127-4th-NNS6-66]
3.4 | GGCWHPVLPIRSGHFCSR (peptide, not shown: large carriers; small tags and cut ends) [C4m3127-4th-NNS6-95]
5 | GGCCHPFLPIYSVHFCAS (peptide, not shown: large carriers; small tags and cut ends) [C4m#19-5th2w-NNS6-34]
11.9 | GGCWHPFLPISSWHFCGL (peptide, not shown: large carriers; small tags and cut ends) [C4m3127-4th-NNS6-60]
7 | GGCMHPFLPIRSWHFCSR (peptide, not shown: large carriers; small tags and cut ends) [C4m#19-5th2w-NNS6-74]
12.8 | GGCGHPFLPIFSLHFCPR (peptide, not shown: large carriers; small tags and cut ends) [C4m3127-4th-NNS6-80]
9.9 | GGCFHPFLPIRSCHFCAR (peptide, not shown: large carriers; small tags and cut ends) [C4m#19-5th2w-NNS6-27]
9.1 | GGCGHPFLPIFSSHFCPL (peptide, not shown: large carriers; small tags and cut ends) [C4m3127-4th-NNS6-85]

ELISA S/N(SA) | Binder
14.7 | GGCWHPFLPILSLHFCGW (peptide, not shown: large carriers; small tags and cut ends) [C4m#19-6th4w-NN6-5-3]
5.8 | GGCLHPFLPIVSIHFCSA (peptide, not shown: large carriers; small tags and cut ends) [C4m#19-5th2w-NNS6-26]
12 | GGCLHPLLPILSVHFCPS (peptide, not shown: large carriers; small tags and cut ends) [C4m#19-5th4w-NN6-83]
5.7 | GGCRHPYLPIWSAHFCCR (peptide, not shown: large carriers; small tags and cut ends) [C4m#19-5th4w-NN6-36]
6.6 | GGCWHPFLPIFSAHFCMR (peptide, not shown: large carriers; small tags and cut ends) [C4m3127-4th-NNS6-89]
11 | GGCRHPFLPIWSVHFCWR (peptide, not shown: large carriers; small tags and cut ends) [C4m#19-5th2w-NNS6-45]
14.7 | GGCWHPYLPIQSLHFCPF (peptide, not shown: large carriers; small tags and cut ends) [C4m#19-5th4w-NN6-5-1]
5 | GGCLHPFLPIYSLHFCPC (peptide, not shown: large carriers; small tags and cut ends) [C4m#19-5th4w-NN6-94]
6.1 | GGCFHPFLPIFSYHFCGL (peptide, not shown: large carriers; small tags and cut ends) [C4m#19-5th2w-NNS6-46]
12.8 | GGCWHPSLPIYSPHFCPL (peptide, not shown: large carriers; small tags and cut ends) [C4m3127-4th-NNS6-2]
15.8 | GGCRHPFLPIVSLHFCPF (peptide, not shown: large carriers; small tags and cut ends) [C4m#19-5th2w-NNS6-51]
15.8 | GGCRHPWLPIWSVHFCGV (peptide, not shown: large carriers; small tags and cut ends) [C4m#19-5th4w-NN6-45]
10.9 | GGCSHPFLPIWSVHFCGQ (peptide, not shown: large carriers; small tags and cut ends) [C4m3127-4th-NNS6-3]
3.4 | GGCFHPFLPIQSRHFCCR (peptide, not shown: large carriers; small tags and cut ends) [C4m#19-5th2w-NNS6-93]
4.4 | GGCLHPFLPILSLHFCPF (peptide, not shown: large carriers; small tags and cut ends) [C4m3127-4th-NNS6-20]
6.4 | GGCWHPFLPIVSFHFCPF (peptide, not shown: large carriers; small tags and cut ends) [C4m#19-5th2w-NNS6-84]
11.4 | GGCLHPWLPIRSFHFCGA (peptide, not shown: large carriers; small tags and cut ends) [C4m#19-5th2w-NNS6-53]
8.3 | GGCMHPFLPIISQHFCAF (peptide, not shown: large carriers; small tags and cut ends) [C4m#19-5th4w-NN6-89]
14.2 | GGCVHPALPIWSFHFCPS (peptide, not shown: large carriers; small tags and cut ends) [C4m#19-5th4w-NN6-46-1]
4 | GGCFHPFLPIRSHHFCML (peptide, not shown: large carriers; small tags and cut ends) [C4m#19-5th4w-NN6-40]
15.3 | GGCWHPWLPIKSPHFCAL (peptide, not shown: large carriers; small tags and cut ends) [C4m#19-5th2w-NNS6-75]
3.6 | GGCLHPFLPIVSWHFCPC (peptide, not shown: large carriers; small tags and cut ends) [C4m#19-5th2w-NNS6-80]

ELISA S/N(SA) | Binder
4.1 | GGCMHPSLPIWSWHFCPH (peptide, not shown: large carriers; small tags and cut ends) [C4m3127-4th-NNS6-19]
3.5 | GGCWHPVLPIRSIHFCGC (peptide, not shown: large carriers; small tags and cut ends) [C4m3127-4th-NNS6-37]
9.4 | GGCRHPFLPIWSFHFCWG (peptide, not shown: large carriers; small tags and cut ends) [C4m#19-5th2w-NNS6-33]
12.5 | GGCWHPFLPILSLHFCSR (peptide, not shown: large carriers; small tags and cut ends) [C4m#19-5th4w-NN6-65]
16.1 | GGCRHPYLPIFSAHFCRS (peptide, not shown: large carriers; small tags and cut ends) [C4m#19-5th4w-NN6-1]
5.9 | GGCPHPMLPIFSVHFCPY (peptide, not shown: large carriers; small tags and cut ends) [C4m#19-5th4w-NN6-61]
4.8 | GGCRHPFLPIWSSHFCAA (peptide, not shown: large carriers; small tags and cut ends) [C4m#19-5th2w-NNS6-43]
9 | GGCWHPFLPILSWHFCGR (peptide, not shown: large carriers; small tags and cut ends) [C4m#19-5th2w-NNS6-30]
4.5 | GGCLHPYLPIFSVHFCAL (peptide, not shown: large carriers; small tags and cut ends) [C4m#19-5th2w-NNS6-87]
3.8 | GGCRHPFLPIFSWHFCAV (peptide, not shown: large carriers; small tags and cut ends) [C4m#19-5th4w-NN6-80]
15.8 | GGCSHPFLPIRSRHFCPF (peptide, not shown: large carriers; small tags and cut ends) [C4m3127-4th-NNS6-12]
3.1 | GGCWHPVLPIRSDHFCCR (peptide, not shown: large carriers; small tags and cut ends) [C4m#19-5th2w-NNS6-41]
4 | GGCMHPYLPIRSFHFCSC (peptide, not shown: large carriers; small tags and cut ends) [C4m#19-5th4w-NN6-49]
4.3 | GGCCHPWLPIRSVHFCPF (peptide, not shown: large carriers; small tags and cut ends) [C4m#19-5th2w-NNS6-61]
5.9 | GGCRHPVLPIWSSHFCPW (peptide, not shown: large carriers; small tags and cut ends) [C4m3127-4th-NNS6-94]
4.6 | GGCSHPYLPIHSRHFCLS (peptide, not shown: large carriers; small tags and cut ends) [C4m3127-4th-NNS6-70]
13.7 | GGCWHPVLPIRSVHFCCR (peptide, not shown: large carriers; small tags and cut ends) [C4m#19-5th4w-NN6-64]
12.9 | GGCLHPYLPIVSSHFCPF (peptide, not shown: large carriers; small tags and cut ends) [C4m3127-4th-NNS6-64]
4.6 | GGCLHPWLPIVSCHFCPR (peptide, not shown: large carriers; small tags and cut ends) [C4m#19-5th2w-NNS6-68]
4.7 | GGCRHPFLPIRSPHFCGS (peptide, not shown: large carriers; small tags and cut ends) [C4m3127-4th-NNS6-7]
5.6 | GGCWHPFLPIKSVHFCCA (peptide, not shown: large carriers; small tags and cut ends) [C4m#19-5th4w-NN6-75]
16.1 | GGCMHPFLPIKSSHFCRK (peptide, not shown: large carriers; small tags and cut ends) [C4m#19-5th4w-NN6-6]

target: Recombinant Human CTLA4-Fc chimera (R&D systems) (human) (UniProt P16410); assay: ELISA, purified MBP fusion on immobilised CTLA-4

EC50 [nM] | Binder
217 | GGCMHPYLPVISHHFCGR (peptide, not shown: large carriers; small tags and cut ends) [C4-302mat-3-100-12]
187 | GGCMHPFLPVVSHHFCGA (peptide, not shown: large carriers; small tags and cut ends) [C4-302mat-3-1-48]
189 | GGCMHPFLPIVSHHFCGS (peptide, not shown: large carriers; small tags and cut ends) [C4-302mat-2-100-27]
160 | GGCMHPFLPIASLHFCGR (peptide, not shown: large carriers; small tags and cut ends) [C4-302mat-3-1-23]

From patent publication US20240092836A1
